The target in assay [1] is T1, biotinylated recombinant human αvβ8 integrin (human, UniProt P06756 31-1048; P26012 43-684, biotin (chain and site not stated) | biotin (chain and site not stated)).
T1 chain 1: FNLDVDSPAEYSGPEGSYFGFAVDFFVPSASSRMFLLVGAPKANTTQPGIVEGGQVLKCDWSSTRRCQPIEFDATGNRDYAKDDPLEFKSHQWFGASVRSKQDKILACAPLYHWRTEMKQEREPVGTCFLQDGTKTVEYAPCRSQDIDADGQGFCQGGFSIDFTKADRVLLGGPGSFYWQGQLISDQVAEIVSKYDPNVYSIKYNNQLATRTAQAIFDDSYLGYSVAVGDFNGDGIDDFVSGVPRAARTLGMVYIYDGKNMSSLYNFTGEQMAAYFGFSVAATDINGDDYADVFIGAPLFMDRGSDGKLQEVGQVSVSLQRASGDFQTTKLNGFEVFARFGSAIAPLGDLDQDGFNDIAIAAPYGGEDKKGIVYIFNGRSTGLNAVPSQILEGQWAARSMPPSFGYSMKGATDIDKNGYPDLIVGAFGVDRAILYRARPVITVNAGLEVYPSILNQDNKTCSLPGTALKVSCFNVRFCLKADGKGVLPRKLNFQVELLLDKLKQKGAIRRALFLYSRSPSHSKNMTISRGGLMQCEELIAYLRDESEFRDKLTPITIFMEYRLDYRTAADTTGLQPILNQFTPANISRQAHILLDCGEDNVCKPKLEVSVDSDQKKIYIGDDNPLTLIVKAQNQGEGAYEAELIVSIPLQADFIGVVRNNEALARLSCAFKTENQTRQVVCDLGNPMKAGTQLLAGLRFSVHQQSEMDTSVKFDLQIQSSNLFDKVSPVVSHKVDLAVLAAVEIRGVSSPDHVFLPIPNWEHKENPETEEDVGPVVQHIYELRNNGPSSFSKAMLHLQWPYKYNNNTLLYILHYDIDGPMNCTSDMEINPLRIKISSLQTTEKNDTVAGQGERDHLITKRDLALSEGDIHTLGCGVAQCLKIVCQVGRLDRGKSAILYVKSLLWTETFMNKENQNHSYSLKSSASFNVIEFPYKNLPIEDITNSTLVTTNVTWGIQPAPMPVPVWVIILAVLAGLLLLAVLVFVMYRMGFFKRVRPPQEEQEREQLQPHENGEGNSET
T1 chain 2: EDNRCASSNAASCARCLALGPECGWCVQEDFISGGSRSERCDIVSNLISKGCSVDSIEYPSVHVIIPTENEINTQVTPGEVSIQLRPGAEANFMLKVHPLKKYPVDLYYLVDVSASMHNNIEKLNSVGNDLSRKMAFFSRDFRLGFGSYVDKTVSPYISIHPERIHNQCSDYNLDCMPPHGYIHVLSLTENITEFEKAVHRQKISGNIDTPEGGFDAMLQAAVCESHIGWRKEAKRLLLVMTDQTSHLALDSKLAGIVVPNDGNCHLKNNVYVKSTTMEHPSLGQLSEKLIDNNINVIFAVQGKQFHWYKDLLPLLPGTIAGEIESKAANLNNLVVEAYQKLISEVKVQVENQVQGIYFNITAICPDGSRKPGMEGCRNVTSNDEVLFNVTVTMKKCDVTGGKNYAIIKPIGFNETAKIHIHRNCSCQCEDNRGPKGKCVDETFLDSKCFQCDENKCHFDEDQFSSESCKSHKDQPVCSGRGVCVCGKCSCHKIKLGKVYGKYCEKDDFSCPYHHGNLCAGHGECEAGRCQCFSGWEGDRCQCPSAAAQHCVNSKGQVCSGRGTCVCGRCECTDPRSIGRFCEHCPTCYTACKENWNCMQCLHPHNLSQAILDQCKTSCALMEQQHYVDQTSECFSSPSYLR
Put plainly: ELISA; competition with latent TGFβ1. (An ELISA detects its analyte on a solid surface through an enzyme-linked reagent.)

For assay [2], the target named is T2, biotinylated recombinant human αvβ6 integrin (human, UniProt P06756 31-1048; P18564 22-709, biotin (chain and site not stated) | biotin (chain and site not stated)).
T2 chain 1: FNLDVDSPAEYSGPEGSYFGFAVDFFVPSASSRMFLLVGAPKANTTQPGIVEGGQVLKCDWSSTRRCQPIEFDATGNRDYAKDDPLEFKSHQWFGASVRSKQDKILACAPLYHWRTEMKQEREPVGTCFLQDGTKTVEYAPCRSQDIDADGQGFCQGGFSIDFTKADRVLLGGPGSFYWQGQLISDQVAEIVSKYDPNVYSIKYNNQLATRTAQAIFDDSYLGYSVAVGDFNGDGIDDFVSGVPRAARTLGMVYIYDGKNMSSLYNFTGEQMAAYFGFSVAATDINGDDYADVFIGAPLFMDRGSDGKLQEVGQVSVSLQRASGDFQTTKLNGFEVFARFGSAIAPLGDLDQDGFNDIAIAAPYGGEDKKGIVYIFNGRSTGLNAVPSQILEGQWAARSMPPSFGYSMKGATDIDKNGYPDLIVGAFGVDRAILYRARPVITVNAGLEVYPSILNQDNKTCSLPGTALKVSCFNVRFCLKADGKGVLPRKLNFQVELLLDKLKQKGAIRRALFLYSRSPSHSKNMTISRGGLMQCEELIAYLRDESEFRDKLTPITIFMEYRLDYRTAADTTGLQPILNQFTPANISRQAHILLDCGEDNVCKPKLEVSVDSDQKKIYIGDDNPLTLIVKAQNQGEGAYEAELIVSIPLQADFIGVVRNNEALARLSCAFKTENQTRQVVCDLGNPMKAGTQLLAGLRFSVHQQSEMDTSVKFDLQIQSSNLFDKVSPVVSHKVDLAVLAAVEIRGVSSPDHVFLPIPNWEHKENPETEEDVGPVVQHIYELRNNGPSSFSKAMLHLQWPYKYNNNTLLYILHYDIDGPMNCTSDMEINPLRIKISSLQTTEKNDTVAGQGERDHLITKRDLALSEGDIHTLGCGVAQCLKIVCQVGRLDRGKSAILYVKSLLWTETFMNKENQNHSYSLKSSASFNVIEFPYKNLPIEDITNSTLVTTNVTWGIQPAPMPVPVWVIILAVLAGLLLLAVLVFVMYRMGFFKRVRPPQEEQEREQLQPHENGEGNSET
T2 chain 2: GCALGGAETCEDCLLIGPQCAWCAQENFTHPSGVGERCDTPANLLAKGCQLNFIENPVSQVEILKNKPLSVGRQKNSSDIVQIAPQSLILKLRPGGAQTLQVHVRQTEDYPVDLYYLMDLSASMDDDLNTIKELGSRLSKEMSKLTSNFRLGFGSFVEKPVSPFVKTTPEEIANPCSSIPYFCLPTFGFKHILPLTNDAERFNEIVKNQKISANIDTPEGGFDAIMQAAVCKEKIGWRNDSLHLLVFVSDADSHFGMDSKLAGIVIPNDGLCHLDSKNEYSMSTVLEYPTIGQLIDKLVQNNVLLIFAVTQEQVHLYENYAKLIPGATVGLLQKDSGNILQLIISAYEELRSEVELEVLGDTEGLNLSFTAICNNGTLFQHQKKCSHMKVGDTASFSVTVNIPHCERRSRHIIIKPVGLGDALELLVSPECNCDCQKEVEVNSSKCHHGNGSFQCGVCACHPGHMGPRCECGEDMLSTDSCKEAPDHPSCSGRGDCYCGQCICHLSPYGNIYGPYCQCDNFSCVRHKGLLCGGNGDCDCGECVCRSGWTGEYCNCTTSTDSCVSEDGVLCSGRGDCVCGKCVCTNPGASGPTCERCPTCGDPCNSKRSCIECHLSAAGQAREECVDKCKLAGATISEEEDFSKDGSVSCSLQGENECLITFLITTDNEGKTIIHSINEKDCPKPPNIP
Briefly: ELISA; competition with latent TGFβ1.

Bridge positions count the residues as written; N and C are the ends. Square brackets hold non-standard residues; d marks the D form. Ends that are not written are not given here. Lys(N3) = [N-]=[N+]=NCCCC[C@H](N)C(=O)O; Pra = C#CC[C@H](N)C(=O)O

Take CFETLRGDLRILSILR[Pra]QNL[Lys(N3)]KELQD-NH2 (triazole 17-21) [peptide 5a (chromogranin A-derived peptide)]: the values for the Ki in assay [1] and in assay [2] were 2.74 nM and 0.139 nM, respectively.

These data come from article PMC11889887 (2025).
